Laboratory results taken from US20230242624A1 (NEURIMMUNE, published 2023).
Where “and” joins values, the source holds several entries; their conditions need not be identical. Equal entries are not always repeated. Where two headings read alike, the source gives them in different places.

Experiments:
[1] = molecular target: SARS-CoV-2 Spike (S) protein on vesicular stomatitis virus (VSV) pseudoviruses (SARS-CoV-2, UniProt P0DTC2 14-1273); test: cell-based or functional assay
[2] = molecular target: T1, SARS-CoV-2-S1 (RBD)-His protein (Trenzyme) (SARS-CoV-2, UniProt P0DTC2 319-541); test: direct ELISA on coated RBD-His (FIG. 1C); IgG1
[3] = molecular target: SARS-CoV-2 Spike Protein (S1+S2 ECD, His-Tag) (Sino 40589-V08B1) (SARS-CoV-2, UniProt P0DTC2 14-1213)
[4] = molecular target: T1, SARS-CoV-2-S1 (RBD)-His protein …
[5] = molecular target: T1, SARS-CoV-2-S1 (RBD)-His protein …; remark: listed apart in the source
[6] = molecular target: T2, MERS-CoV Spike protein fragment (RBD, aa 367-606, His tag) (MERS-CoV, UniProt K9N5Q8 367-606); test: iQue flow cytometry, antigen-coated beads
T2 sequence: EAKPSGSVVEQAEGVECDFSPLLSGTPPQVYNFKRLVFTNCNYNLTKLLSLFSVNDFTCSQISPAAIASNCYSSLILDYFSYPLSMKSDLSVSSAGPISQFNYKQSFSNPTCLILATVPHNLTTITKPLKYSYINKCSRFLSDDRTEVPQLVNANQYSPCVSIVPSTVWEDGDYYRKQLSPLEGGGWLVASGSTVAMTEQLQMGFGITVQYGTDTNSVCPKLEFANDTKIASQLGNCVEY

[7] = molecular target: recombinant SARS-CoV Spike protein (RBD, His tag) (SARS-CoV, UniProt P59594 306-527); test: iQue flow cytometry, antigen-coated beads
[8] = molecular target: T1, SARS-CoV-2-S1 (RBD)-His protein …; test: iQue flow cytometry, antigen-coated beads
[9] = molecular target: T1, SARS-CoV-2-S1 (RBD)-His protein …; remark: listed apart in the source
[10] = molecular target: T1, SARS-CoV-2-S1 (RBD)-His protein …; test: competition ELISA, RBD binding to coated ACE2
[11] = molecular target: T1, SARS-CoV-2-S1 (RBD)-His protein …; test: direct ELISA on coated RBD-His
[12] = molecular target: T1, SARS-CoV-2-S1 (RBD)-His protein …; test: direct ELISA on coated RBD-His; remark: listed apart in the source
[13] = molecular target: T1, SARS-CoV-2-S1 (RBD)-His protein …; test: competition ELISA, RBD binding to coated ACE2; IgG1

B1: NI-607.649_B11 (antibody, V domains shown)
VH: QVQLVQSGAEVKKPGSSVKVSCKASGGTFSNYAISWVRQAPGQGLEWMGGIIPIFGTANYAQKFQGRVTITADESTSTAYMELSSLRSEDTAVYYCAGDRWYYDSSGYPTPDEYFQHWGQGTQVTVSS
VL: QSVLTQPPSVSGAPGQRVTISCTGSSSNIGAGYDVHWYQQLPGTAPKLLIYGNSNRPSGVPDRFSGSKSGTSASLAITGLQAEDEADYYCQSYDSSLSGVVFGGGTKLTVL
IC50, pseudovirus entry assay (luciferase, HEK 293T-ACE2 cells) [1]: 232 ng/mL and 1.53 nM
EC50 [2]: ~0.013 nM
EC50 (read off the curve) [3]: ~0.5 nM
EC50 (read off the curve) [4]: ~4 nM
EC50 [5]: 0.036 nM
EC50 [6]: 1000 nM
EC50 [7]: 1.7 nM
EC50 [8]: 1.4 nM
IC50 (read off the curve) [9]: ~0.04 mg/L
IC50 [10]: 0.08 nM
EC50 [11]: 0.027 nM
EC50 [12]: ~0.021 nM
IC50 [13]: ~0.052 mg/L
